From US20130236458A1 (AbbVie / Abbott, published 2013)

T1: Recombinant Human IL-17 (human, UniProt Q16552 20-155, limits assumed)
T1 sequence (looked up): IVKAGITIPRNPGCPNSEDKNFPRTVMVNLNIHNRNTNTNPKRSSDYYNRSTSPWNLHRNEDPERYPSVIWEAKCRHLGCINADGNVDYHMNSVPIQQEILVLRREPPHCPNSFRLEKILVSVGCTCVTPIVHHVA


Legend:
Recombinant Human IL-17 [1] = target: T1, Recombinant Human IL-17; assay: cell-based or functional assay
Recombinant Human IL-13 [2] = target: T2, Recombinant Human IL-13 (human, UniProt P35225 35-146, limits assumed); assay: cell-based or functional assay
Recombinant Human IL-17 [3] = target: T1, Recombinant Human IL-17; assay: SPR (Biacore)
How it was run: (§1)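 Antibodies or DVD-Ig captured on anti-mouse IgG (Fcγ) CM5 surface; antigen injected at 10–200 nM in HBS-EP, pH 7.4, 25 °C, 25 µL/min. kon and koff from global 1:1 Langmuir fit; KD = koff/kon.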

Recombinant Human IL-13 [4] = target: T2, Recombinant Human IL-13; assay: SPR (Biacore)
How it was run: as §1

T2 sequence (P35225 35-146 limits assumed): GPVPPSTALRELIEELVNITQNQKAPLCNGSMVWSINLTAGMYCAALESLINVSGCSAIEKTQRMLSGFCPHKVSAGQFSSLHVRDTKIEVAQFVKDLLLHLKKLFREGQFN

N-Terminal VD IL17 Neutralization Assay IC50 (Recombinant Human IL-17 [1]) [nM] | C-Terminal VD IL13 Neutralization Assay IC50 (Recombinant Human IL-13 [2]) [nM] | Kd (Recombinant Human IL-17 [3]) [nM] | koff (Recombinant Human IL-17 [3]) [s⁻¹] | kon (Recombinant Human IL-17 [3]) [M⁻¹ s⁻¹] | Kd (Recombinant Human IL-13 [4]) [nM] | koff (Recombinant Human IL-13 [4]) [s⁻¹] | kon (Recombinant Human IL-13 [4]) [M⁻¹ s⁻¹] | C-Terminal VD IL17 Neutralization Assay IC50 (Recombinant Human IL-17 [1]) [nM] | N-Terminal VD IL13 Neutralization Assay IC50 (Recombinant Human IL-13 [2]) [nM] | Binder
0.0029 | 1.7 | < 0.00037 | < 1e-06 | 2.7e+06 | < 0.048 | < 1e-06 | 21000 |  |  | DVD2167 (bispecific antibody, DVD-Ig; also called DVD2167H; DVD2167L) VH: EVQLVQSGAEVKKPGSSVKVSCKASGYTFTDYEIHWVRQAPGQGLEWMGVNDPESGGTFYNQKFDGRVTLTADESTSTAYMELSSLRSEDTAVYYCTRYSKWDSFDGMDYWGQGTTVTVSSASTKGPEVQLVQSGAEVKKPGASVKVSCKASGYTFTTYGVSWVRQAPGQGLEWMGEIYPGNYNTYYNEKFRGRVTMTTDTSTSTAYMELRSLRSDDTAVYYCARWRTSYFSDYGYFDYWGQGTTVTVSS VL: DIQMTQSPSSLSASVGDRVTITCRASSGIISYIDWFQQKPGKAPKRLIYATFDLASGVPSRFSGSGSGTDYTLTISSLQPEDFATYYCRQVGSYPETFGQGTKLEIKRTVAAPDVVMTQSPLSLPVTLGQPASISCRSSQSLVHSHGNTYLHWYQQRPGQSPRLLIYTVSNRFSGVPDRFSGSGSGTDFTLKISRVEAEDVGVYYCSQSTHVPYTFGGGTKVEIKR
0.0011 | 0.506 | 0.011 | 2.1e-05 | 1.9e+06 | < 0.005 | < 1e-06 | 200000 |  |  | DVD2171 (bispecific antibody, DVD-Ig; also called DVD2171H; DVD2171L) VH: EVQLVQSGAEVKKPGSSVKVSCKASGYTFTDYEIHWVRQAPGQGLEWMGVNDPESGGTFYNQKFDGRVTLTADESTSTAYMELSSLRSEDTAVYYCTRYSKWDSFDGMDYWGQGTTVTVSSASTKGPSVFPLAPEVQLVQSGAEVKKPGASVKVSCKASGYTFTTYGVSWVRQAPGQGLEWMGEIYPGNYNTYYNEKFRGRVTMTTDTSTSTAYMELRSLRSDDTAVYYCARWRTSYFSDYGYFDYWGQGTTVTVSS VL: DIQMTQSPSSLSASVGDRVTITCRASSGIISYIDWFQQKPGKAPKRLIYATFDLASGVPSRFSGSGSGTDYTLTISSLQPEDFATYYCRQVGSYPETFGQGTKLEIKRTVAAPDVVMTQSPLSLPVTLGQPASISCRSSQSLVHSHGNTYLHWYQQRPGQSPRLLIYTVSNRFSGVPDRFSGSGSGTDFTLKISRVEAEDVGVYYCSQSTHVPYTFGGGTKVEIKR
0.0081 | 0.876 | 0.0049 | 1.2e-05 | 2.5e+06 | 0.2 | 5.3e-05 | 260000 |  |  | DVD2159 (bispecific antibody, DVD-Ig; also called DVD2159H; DVD2159L) VH: EVQLVQSGAEVKKPGSSVKVSCKASGGSFGGYGIGWVRQAPGQGLEWMGGITPFFGFADYAQKFQGRVTITADESTTTAYMELSGLTSDDTAVYYCARDPNEFWNGYYSTHDFDSWGQGTTVTVSSASTKGPSVFPLAPEVTLRESGPGLVKPTQTLTLTCTLYGFSLSTSDMGVDWIRQPPGKGLEWLAHIWWDDVKRYNPALKSRLTISKDTSKNQVVLKLTSVDPVDTATYYCARTVSSGYIYYAMDYWGQGTLVTVSS VL: EIVLTQSPDFQSVTPKEKVTITCRASQDIGSELHWYQQKPDQPPKLLIKYASHSTSGVPSRFSGSGSGTDFTLTINGLEAEDAGTYYCHQTDSLPYTFGPGTKVDIKRTVAAPDIQMTQSPSSLSASVGDRVTISCRASQDIRNYLNWYQQKPGKAPKLLIFYTSKLHSGVPSRFSGSGSGTDYTLTISSLQPEDIATYYCQQGLTPPLTFGGGTKVEIKR
0.0133 | 0.355 | 0.014 | 3.2e-05 | 2.3e+06 | 0.22 | 5.7e-05 | 260000 |  |  | DVD2165 (bispecific antibody, DVD-Ig; also called DVD2165H; DVD2165L) VH: EVQLVQSGAEVKKPGESVKISCKASGGSFRSYGISWVRQAPGQGLEWMGGITHFFGITDYAQKFQGRVTITADESTTTAYMELSGLTSDDTAVYYCAREPNDFWNGYYDTHDFDSWGQGTTVTVSSASTKGPSVFPLAPEVTLRESGPGLVKPTQTLTLTCTLYGFSLSTSDMGVDWIRQPPGKGLEWLAHIWWDDVKRYNPALKSRLTISKDTSKNQVVLKLTSVDPVDTATYYCARTVSSGYIYYAMDYWGQGTLVTVSS VL: EIVLTQSPDFQSVTPKEKVTITCRASQNIGSELHWYQQKPDQSPKLLIKYASHSISGVPSRFSGSGSGTDFTLTINGLEAEDAATYYCHQSDTLPHTFGQGTKVDIKRTVAAPDIQMTQSPSSLSASVGDRVTISCRASQDIRNYLNWYQQKPGKAPKLLIFYTSKLHSGVPSRFSGSGSGTDYTLTISSLQPEDIATYYCQQGLTPPLTFGGGTKVEIKR
0.0144 | 0.812 | 0.027 | 4.5e-05 | 1.6e+06 | 0.38 | 4.1e-05 | 110000 |  |  | DVD2161 (bispecific antibody, DVD-Ig; also called DVD2161H; DVD2161L) VH: EVQLVQSGAEVKKPGESVKISCKASGGSFRSYGISWVRQAPGQGLEWMGGITHFFGITDYAQKFQGRVTITADESTTTAYMELSGLTSDDTAVYYCAREPNDFWNGYYDTHDFDSWGQGTTVTVSSASTKGPEVTLRESGPGLVKPTQTLTLTCTLYGFSLSTSDMGVDWIRQPPGKGLEWLAHIWWDDVKRYNPALKSRLTISKDTSKNQVVLKLTSVDPVDTATYYCARTVSSGYIYYAMDYWGQGTLVTVSS VL: EIVLTQSPDFQSVTPKEKVTITCRASQNIGSELHWYQQKPDQSPKLLIKYASHSISGVPSRFSGSGSGTDFTLTINGLEAEDAATYYCHQSDTLPHTFGQGTKVDIKRTVAAPDIQMTQSPSSLSASVGDRVTISCRASQDIRNYLNWYQQKPGKAPKLLIFYTSKLHSGVPSRFSGSGSGTDYTLTISSLQPEDIATYYCQQGLTPPLTFGGGTKVEIKR
 |  | < 0.05 | < 1e-06 | 20000 | 0.086 | 0.00014 | 1.6e+06 | 0.0998 | 0.131 | DVD2158 (bispecific antibody, DVD-Ig; also called DVD2158H; DVD2158L) VH: EVTLRESGPGLVKPTQTLTLTCTLYGFSLSTSDMGVDWIRQPPGKGLEWLAHIWWDDVKRYNPALKSRLTISKDTSKNQVVLKLTSVDPVDTATYYCARTVSSGYIYYAMDYWGQGTLVTVSSASTKGPSVFPLAPEVQLVQSGAEVKKPGSSVKVSCKASGGSFGGYGIGWVRQAPGQGLEWMGGITPFFGFADYAQKFQGRVTITADESTTTAYMELSGLTSDDTAVYYCARDPNEFWNGYYSTHDFDSWGQGTTVTVSS VL: DIQMTQSPSSLSASVGDRVTISCRASQDIRNYLNWYQQKPGKAPKLLIFYTSKLHSGVPSRFSGSGSGTDYTLTISSLQPEDIATYYCQQGLTPPLTFGGGTKVEIKRTVAAPEIVLTQSPDFQSVTPKEKVTITCRASQDIGSELHWYQQKPDQPPKLLIKYASHSTSGVPSRFSGSGSGTDFTLTINGLEAEDAGTYYCHQTDSLPYTFGPGTKVDIKR
 |  | 1.7 | 3.1e-05 | 18000 | 0.11 | 0.00017 | 1.5e+06 | 0.135 | 0.146 | DVD2164 (bispecific antibody, DVD-Ig; also called DVD2164H; DVD2164L) VH: EVTLRESGPGLVKPTQTLTLTCTLYGFSLSTSDMGVDWIRQPPGKGLEWLAHIWWDDVKRYNPALKSRLTISKDTSKNQVVLKLTSVDPVDTATYYCARTVSSGYIYYAMDYWGQGTLVTVSSASTKGPSVFPLAPEVQLVQSGAEVKKPGESVKISCKASGGSFRSYGISWVRQAPGQGLEWMGGITHFFGITDYAQKFQGRVTITADESTTTAYMELSGLTSDDTAVYYCAREPNDFWNGYYDTHDFDSWGQGTTVTVSS VL: DIQMTQSPSSLSASVGDRVTISCRASQDIRNYLNWYQQKPGKAPKLLIFYTSKLHSGVPSRFSGSGSGTDYTLTISSLQPEDIATYYCQQGLTPPLTFGGGTKVEIKRTVAAPEIVLTQSPDFQSVTPKEKVTITCRASQNIGSELHWYQQKPDQSPKLLIKYASHSISGVPSRFSGSGSGTDFTLTINGLEAEDAATYYCHQSDTLPHTFGQGTKVDIKR
 |  | 0.075 | 9.4e-06 | 130000 | 0.034 | 2.6e-05 | 760000 | 0.0164 | 0.089 | DVD2166 (bispecific antibody, DVD-Ig; also called DVD2166H; DVD2166L) VH: EVQLVQSGAEVKKPGASVKVSCKASGYTFTTYGVSWVRQAPGQGLEWMGEIYPGNYNTYYNEKFRGRVTMTTDTSTSTAYMELRSLRSDDTAVYYCARWRTSYFSDYGYFDYWGQGTTVTVSSASTKGPEVQLVQSGAEVKKPGSSVKVSCKASGYTFTDYEIHWVRQAPGQGLEWMGVNDPESGGTFYNQKFDGRVTLTADESTSTAYMELSSLRSEDTAVYYCTRYSKWDSFDGMDYWGQGTTVTVSS VL: DVVMTQSPLSLPVTLGQPASISCRSSQSLVHSHGNTYLHWYQQRPGQSPRLLIYTVSNRFSGVPDRFSGSGSGTDFTLKISRVEAEDVGVYYCSQSTHVPYTFGGGTKVEIKRTVAAPDIQMTQSPSSLSASVGDRVTITCRASSGIISYIDWFQQKPGKAPKRLIYATFDLASGVPSRFSGSGSGTDYTLTISSLQPEDFATYYCRQVGSYPETFGQGTKLEIKR
 |  | < 0.0025 | < 1e-06 | 400000 | 0.054 | 3.7e-05 | 680000 | 0.0025 | 0.119 | DVD2168 (bispecific antibody, DVD-Ig; also called DVD2168H; DVD2168L) VH: EVQLVQSGAEVKKPGASVKVSCKASGYTFTTYGVSWVRQAPGQGLEWMGEIYPGNYNTYYNEKFRGRVTMTTDTSTSTAYMELRSLRSDDTAVYYCARWRTSYFSDYGYFDYWGQGTTVTVSSASTKGPEVQLVQSGAEVKKPGSSVKVSCKASGYTFTDYEIHWVRQAPGQGLEWMGVNDPESGGTFYNQKFDGRVTLTADESTSTAYMELSSLRSEDTAVYYCTRYSKWDSFDGMDYWGQGTTVTVSS VL: DVVMTQSPLSLPVTLGQPASISCRSSQSLVHSHGNTYLHWYQQRPGQSPRLLIYTVSNRFSGVPDRFSGSGSGTDFTLKISRVEAEDVGVYYCSQSTHVPYTFGGGTKVEIKRTVAAPSVFIFPPDIQMTQSPSSLSASVGDRVTITCRASSGIISYIDWFQQKPGKAPKRLIYATFDLASGVPSRFSGSGSGTDYTLTISSLQPEDFATYYCRQVGSYPETFGQGTKLEIKR
